Test results from US20090191117A1.

Target: αvβ3 and αvβ5 integrins on human umbilical vein endothelial cells (human), P06756
Experiment: cell-based or functional assay

B1: CNTO 95 (antibody, V domains shown)
VH: QVQLVESGGGVVQPGRSRRLSCAASGFTFSRYTMHWVRQAPGKGLEWVAVISFDGSNKYYVDSVKGRFTISRDNSENTLYLQVNILRAEDTAVYYCAREARGSYAFDIWGQGTMVTVSS
VL: EIVLTQSPATLSLSPGERATLSCRASQSVSSYLAWYQQKPGQAPRLLIYDASNRATGIPARFSGSGSGTDFTLTISSLEPEDFAVYYCQQRSNWPPFTFGPGTKVDIK
  HUVEC adhesion to fibrin, percent of adhesion without antibody, antibody at 10 µg/ml: 45.1%
  HUVEC adhesion to fibrinogen, percent of adhesion without antibody, antibody at 10 µg/ml: 34.5%
  HUVEC adhesion to gelatin, percent of adhesion without antibody, antibody at 10 µg/ml: 54.8%
  HUVEC adhesion to vitronectin, percent of adhesion without antibody, antibody at 10 µg/ml: 3.3%
